Results as given in patent US20230346916A1 (NEW YORK BLOOD CENTER, published 2023).

B1: human DPP4 (hDPP4) receptor expressed on 293T cells (receptor)
chain: MKTPWKVLLGLLGAAALVTIITVPVVLLNKGTDDATADSRKTYTLTDYLKNTYRLKLYSLRWISDHEYLYKQENNILVFNAEYGNSSVFLENSTFDEFGHSINDYSISPDGQFILLEYNYVKQWRHSYTASYDIYDLNKRQLITEERIPNNTQWVTWSPVGHKLAYVWNNDIYVKIEPNLPSYRITWTGKEDIIYNGITDWVYEEEVFSAYSALWWSPNGTFLAYAQFNDTEVPLIEYSFYSDESLQYPKTVRVPYPKAGAVNPTVKFFVVNTDSLSSVTNATSIQITAPASMLIGDHYLCDVTWATQERISLQWLRRIQNYSVMDICDYDESSGRWNCLVARQHIEMSTTGWVGRFRPSEPHFTLDGNSFYKIISNEEGYRHICYFQIDKKDCTFITKGTWEVIGIEALTSDYLYYISNEYKGMPGGRNLYKIQLSDYTKVTCLSCELNPERCQYYSVSFSKEAKYYQLRCSGPGLPLYTLHSSVNDKGLRVLEDNSALDKMLQNVQMPSKKLDFIILNETKFWYQMILPPHFDKSKKYPLLLDVYAGPCSQKADTVFRLNWATYLASTENIIVASFDGRGSGYQGDKIMHAINRRLGTFEVEDQIEAARQFSKMGFVDNKRIAIWGWSYGGYVTSMVLGSGSGVFKCGIAVAPVSRWEYYDSVYTERYMGLPTPEDNLDHYRNSTVMSRAENFKQVEYLLIHGTADDNVHFQQSAQISKALVDVGVDFQAMWYTDEDHGIASSTAHQHIYTHMSHFIKQCFSLP
notes: whole, on cells
B2: soluble human DPP4 (sDPP4) receptor (receptor)
chain: SRKTYTLTDYLKNTYRLKLYSLRWISDHEYLYKQENNILVFNAEYGNSSVFLENSTFDEFGHSINDYSISPDGQFILLEYNYVKQWRHSYTASYDIYDLNKRQLITEERIPNNTQWVTWSPVGHKLAYVWNNDIYVKIEPNLPSYRITWTGKEDIIYNGITDWVYEEEVFSAYSALWWSPNGTFLAYAQFNDTEVPLIEYSFYSDESLQYPKTVRVPYPKAGAVNPTVKFFVVNTDSLSSVTNATSIQITAPASMLIGDHYLCDVTWATQERISLQWLRRIQNYSVMDICDYDESSGRWNCLVARQHIEMSTTGWVGRFRPSEPHFTLDGNSFYKIISNEEGYRHICYFQIDKKDCTFITKGTWEVIGIEALTSDYLYYISNEYKGMPGGRNLYKIQLSDYTKVTCLSCELNPERCQYYSVSFSKEAKYYQLRCSGPGLPLYTLHSSVNDKGLRVLEDNSALDKMLQNVQMPSKKLDFIILNETKFWYQMILPPHFDKSKKYPLLLDVYAGPCSQKADTVFRLNWATYLASTENIIVASFDGRGSGYQGDKIMHAINRRLGTFEVEDQIEAARQFSKMGFVDNKRIAIWGWSYGGYVTSMVLGSGSGVFKCGIAVAPVSRWEYYDSVYTERYMGLPTPEDNLDHYRNSTVMSRAENFKQVEYLLIHGTADDNVHFQQSAQISKALVDVGVDFQAMWYTDEDHGIASSTAHQHIYTHMSHFIKQCFSLP
notes: also called hDPP4 in solution

What was measured:
[1] = target: T1, SARS-CoV-2 RBD-Fc fusion protein (residues 331-524 of SARS-CoV-2 S protein with a C-terminal Fc of human IgG1) (SARS-CoV-2; human); experiment: flow cytometry on hDPP4/293T cells
T1 construct: also called SARS-CoV-2 RBD protein; SARS-CoV-2 RBD-Fc protein

[2] = target: T1, SARS-CoV-2 RBD-Fc fusion protein …; experiment: ELISA, RBD-Fc coated at 1 µg/ml, sDPP4 serially diluted

Binder	binding result [1]	binding result [2]
B1	no binding (tested: 20 µg/ml)	–
B2	–	no binding
